Source: patent publication US6248554, “DNA sequence coding for a BMP receptor” (The Procter & Gamble Company, dated 2001)

T1: digit-removed BMP-2 (Homo sapiens (Human), UniProt P12643, 125I label by the chloramine-T method)
T1 sequence: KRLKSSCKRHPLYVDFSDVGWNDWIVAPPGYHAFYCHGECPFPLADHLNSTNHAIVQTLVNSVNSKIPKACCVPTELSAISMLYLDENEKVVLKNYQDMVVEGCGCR

T2: bone morphogenetic protein 2 (Homo sapiens (Human), UniProt P12643)
T2 sequence: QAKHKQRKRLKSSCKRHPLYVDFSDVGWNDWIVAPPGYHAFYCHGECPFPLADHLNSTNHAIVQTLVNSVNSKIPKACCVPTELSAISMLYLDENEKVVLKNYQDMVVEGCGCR

B1: BMP receptor kinase protein-1 (receptor)
chain: QNLDSMLHGTGMKSDLDQKKPENGVTLAPEDTLPFLKCYCSGHCPDDAINNTCITNGHCFAIIEEDDQGETTLTSGCMKYEGSDFQCKDSPKAQLRRTIECCRTNLCNQYLQPTLPPVVIGPFFDGSIRWLVVLISMAVCIVAMIIFSSCFCYKHYCKSISSRGRYNRDLEQDEAFIPVGESLKDLIDQSQSSGSGSGLPLLVQRTIAKQIQMVRQVGKGRYGEVWMGKWRGEKVAVKVFFTTEEASWFRETEIYQTVLMRHENILGFIAADIKGTGSWTQLYLITDYHENGSLYDFLKCATLDTRALLKLAYSAACGLCHLHTEIYGTQGKPAIAHRDLKSKNILIKKNGSCCIADLGLAVKFNSDTNEVDIPLNTRVGTKRYMAPEVLDESLNKNHFQPYIMADIYSFGLIIWEMARRCITGGIVEEYQLPYYNMVPSDPSYEDMREVVCVKRLRPIVSNRWNSDECLRAVLKLMSECWAHNPASRLTALRIKKTLAKMVESQDVKI
B2: bone morphogenetic protein 4 (ligand)
chain: SPKHHSQRARKKNKNCRRHSLYVDFSDVGWNDWIVAPPGYQAFYCHGDCPFPLADHLNSTNHAIVQTLVNSVNSSIPKACCVPTELSAISMLYLDEYDKVVLKNYQEMVVEGCGCR
modifications: 125I label by the chloramine-T method where used as tracer

How the values were obtained:
digit-removed BMP-2 = target: T1, digit-removed BMP-2; assay: DSS crosslinking on transfected COS-7 cells, SDS-PAGE
From the text: (§1) In this method, the bifunctional crosslinking reagent disuccinimidyl suberate (DSS) (Pierce Chemical, Rockford, Ill.) is used to covalently crosslink bound radiolabeled ligand to its receptor by reaction with free amino groups on lysine residues in the two proteins. Following the crosslinking, cellular proteins are separated by gel electrophoresis, and radioactive bands visualized. The labeled bands represent the receptor selectively "tagged" with the radiolabeled ligand. In this procedure, cells are transfected with pJT4-J159F as described in example 7, then seeded into 12 well plates at 670,000 cells/well. Media is changed after 24 hr. At 48 hr after electroporation, the cells are washed, equilibrated, and incubated with [^125I]-BMP-4 or [^125I]-DRBMP-2 and competing unlabeled ligands as described in this example for whole cell binding studies.
(§2) After completion of the 4 hour incubation with ligand, the cells are washed three times at 4° C. with 2 ml of binding buffer having the same composition as described above, except that no BSA is added. To each well is then added 1 ml of fresh BSA-free binding buffer, followed by freshly prepared DSS to a final concentration of 135 μM. After swirling gently to mix the DSS, the plates are incubated for exactly 15 minutes at 4° C. with gentle shaking. […]

[1] = target: T2, bone morphogenetic protein 2; assay: competition: 10 nM unlabelled BMP-2 greatly reduces the band of [125I]-BMP-4 or [125I]-DR-BMP-2 crosslinked to BRK-1
From the text: as §1, §2

[2] = target: B2; assay: saturation binding of [125I]-BMP-4 (10-1000 pM) on COS-7 cells transfected with BRK-1, nonspecific binding with 10 nM unlabelled BMP-4, LIGAND software
Method: For whole cell binding experiments, COS-7 cells are transfected with pJT4-J159F as described in example 7. After electroporation, cells are seeded in 12 well plates at 670,000 cells/ell. Media is changed after 24 hr, and binding experiments are carried out at 48 hr. At that time, cells are washed once with binding buffer (50 mM Hepes buffer, pH 7.4, 128 mM NaCl, 5 mM KCl, 5 mM MgSO_4, 1.2 mM CaCl_2, 2 mg/ml BSA), then equilibrated in the same buffer at 4° C. for 30 min with gentle shaking. The buffer is then aspirated, and to each well is added 500 µl of binding buffer (4° C.), containing [^125I]-BMP-4 tracer (100 pM), as well as varying concentrations of unlabeled BMP-2, BMP-4, or other unlabeled ligand, depending on the assay. For determination of nonspecific binding, BMP-2 is added to the binding buffer at a final concentration of 10 nM. […] The solubilized cells are then transferred to fresh tubes and counted in a Packard Model 5005 "COBRA" Gamma Counter (Packard Instrument Co., Downers Grove, Ill.).
In order to obtain a more quanitative characterization of binding to BRK-1, a saturation binding analysis is performed on COS-7 cells transfected with the cDNA for BRK-1, using the construct pJT4-J159F. Binding of [^125I]-BMP-4 is examined over a concentration range of 10–1000 pM, with nonspecific binding determined with 10 nM unlabeled BMP-4.

[3] = target: B1; assay: whole cell binding of [125I]-BMP-4 (100 pM), nonspecific binding with 10 nM BMP-2, COS-7 cells transfected with pJT4-J159F
Method: The detached cells are pelleted in a tabletop centrifuge, then resuspended in fresh media at a concentration of 6.25 ×10^6 cells/ml. The cell suspension (5 ×10^6 cells, 0.8 ml) is transferred to the cuvette from a BioRad "GENE PULSER" electroporation system (BioRad, Hercules, Calif.). The purified DNA plasmid (10 μg) is added to the cuvette, and the cells subjected to electoporation at 4.0 kV/cm, with a capacitance of 25 μFd. Cells are then plated and allowed to recover. Fresh media is supplied after 24 hr. At 48 hr, cells are ready to be tested for binding of BMP-4.
For whole cell binding experiments, COS-7 cells are transfected with pJT4-J159F as described in example 7. After electroporation, cells are seeded in 12 well plates at 670,000 cells/ell. Media is changed after 24 hr, and binding experiments are carried out at 48 hr. At that time, cells are washed once with binding buffer (50 mM Hepes buffer, pH 7.4, 128 mM NaCl, 5 mM KCl, 5 mM MgSO_4, 1.2 mM CaCl_2, 2 mg/ml BSA), then equilibrated in the same buffer at 4° C. for 30 min with gentle shaking. […] The solubilized cells are then transferred to fresh tubes and counted in a Packard Model 5005 "COBRA" Gamma Counter (Packard Instrument Co., Downers Grove, Ill.).

| Binder | binding result (digit-removed BMP-2) | binding result [1] | Kd [2] [nM] | specific binding relative to mock-transfected COS-7 cells [3] [times] |
| --- | --- | --- | --- | --- |
| B1 | binds | binds | 0.5 |  |
| B2 |  |  |  | 3 |
